According to publication doi:10.1101/2025.01.23.634444:

Target: VraS-H6x (recombinant full-length histidine kinase VraS of Staphylococcus aureus with C-terminal H6x tag) (Staphylococcus aureus USA300-TCH1516)
Assay: SEC

Sequence of VraS-H6x (recombinant full-length histidine kinase VraS of Staphylococcus aureus with C-terminal H6x tag) (enzyme) (Q5HEN9 whole entry): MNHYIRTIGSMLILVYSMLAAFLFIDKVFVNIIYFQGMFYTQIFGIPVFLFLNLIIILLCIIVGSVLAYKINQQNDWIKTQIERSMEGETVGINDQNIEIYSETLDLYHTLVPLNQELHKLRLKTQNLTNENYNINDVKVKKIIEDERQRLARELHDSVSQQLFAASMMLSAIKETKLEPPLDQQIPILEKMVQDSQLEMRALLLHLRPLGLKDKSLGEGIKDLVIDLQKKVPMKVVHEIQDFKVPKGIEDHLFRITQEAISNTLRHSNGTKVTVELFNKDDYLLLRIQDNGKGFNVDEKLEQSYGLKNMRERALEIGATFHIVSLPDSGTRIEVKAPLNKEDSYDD

“VraS-H6x (recombinant full-length histidine kinase VraS of Staphylococcus aureus with C-terminal H6x tag) (enzyme)” was tested, and the stoichiometry N was 2.
